Experimental findings from patent publication US5643726, “Methods for modulating transcription from the amyloid β-protein precursor (APP) promoter” (The General Hospital Corporation, dated 1996) are described below.

Data set [1] addresses T1, USF (43 kDa, recombinant USF) (UniProt P22415 P22415:1-310). The experiment in a line: competition; cold competitor up to 50-fold failed to diminish complex on DK-1. Particulars: tags: expressed in and purified from bacteria; chain copies: 2. As to the method: (§1) EMSA was carried out as in Miner et al. (Miner, L. L. et al., *J. Neurosci. Res.* 33:10–18 (1992)). 1 ng of DNA fragment was incubated with 1 µg nuclear extract for 20 rain at 20° C., unless otherwise indicated. After incubation, the binding mixture was resolved on 6% polyacrylamide gels containing 4% glycerol in 25 mM Tris-borate (pH 8.3), 0.5 mM EDTA. Gels were dried and exposed to Kodak X-OMAT AR film with intensifying screen.
(§2) The amount of complex formed decreased with increasing amounts of cold fragment.

The target in data set [2] is upstream stimulatory factor (USF), 43 kDa form (Homo sapiens (Human), UniProt P22415). The experiment in a line: cell-based or functional assay.
Data set [3] addresses T1, USF (43 kDa, recombinant USF). The experiment in a line: EMSA; visible complex with 350 pg rUSF; competed by cold DK-1. Conditions: tags: expressed in and purified from bacteria; chain copies: 2; label: 32P. The method, then:
as §1, §2

T1 sequence (P22415 whole entry, the tested form may be a part, one chain of several): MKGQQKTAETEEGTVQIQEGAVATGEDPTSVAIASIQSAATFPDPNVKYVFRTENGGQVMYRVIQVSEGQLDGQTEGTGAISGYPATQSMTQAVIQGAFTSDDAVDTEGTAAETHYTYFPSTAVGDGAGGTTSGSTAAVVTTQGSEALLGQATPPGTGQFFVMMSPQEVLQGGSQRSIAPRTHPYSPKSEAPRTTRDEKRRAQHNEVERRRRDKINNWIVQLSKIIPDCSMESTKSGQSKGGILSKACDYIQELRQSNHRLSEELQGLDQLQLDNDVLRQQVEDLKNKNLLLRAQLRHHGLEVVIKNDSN

B1: AP-1/AP-4 Random (dsDNA)
DNA 1: GGGCCGGAATCGTGCTGTCGCCTGGCTCT
DNA 2: AGAGCCAGGCGACAGCACGATTCCGGCCC
For B1, in data set [1], the binding result was “no binding”.

B2: mouse amyloid precursor-like protein APLP1 (other)
chain: MGPTSPAARGQGRRWRPPLPLLLPLSLLLLRAQLAVGNLAVGSPSAAEAPGSAQVAGLCGRLTLHRDLRTGRWEPDPQRSRRCLLDPQRVLEYCRQMYPELHIARVEQAAQAIPMERWCGGTRSGRCAHPHHEVVPFHCLPGEFVSEALLVPEGCRFLHQERMDQCESSTRRHQEAQEACSSQGLILHGSGMLLPCGSDRFRGVEYVCCPPPATPNPSGMAAGDPSTRSWPLGGRAEGGEDEEEVESFPQPVDDYFVEPPQAEEEEEEEEERAPPPSSHTPVMVSRVTPTPRPTDGVDVYFGMPGEIGEHEGFLRAKMDLEERRMRQINEVMREWAMADSQSKNLPKADRQALNEHFQSILQTLEEQVSGERQRLVETHATRVIALINDQRRAALEGFLAALQGDPPQAERVLMALRRYLRAEQKEQRHTLRHYQHVAAVDPEKAQQMRFQVQTHLQVIEERMNQSLGLLDQNPHLAQELRPQIQELLLAEHLGPSELDASVPGSSSEDKGSLQPPESKDDPPVTLPKGSTDQESSSSGREKLTPLEQYEQKVNASAPRGFPFHSSDIQRDELAPSGTGVSREALSGLLIMGAGGGSLIVLSLLLLRKKKPYGTISHGVVEVDPMLTLEEQQLRELQRHGYENPTYRFLEERP
B2: the “relative luciferase units (USF activation of transcription from the APP promoter)” value in data set [2] is ~2 fold.

B3: DK-1 fragment (APP promoter -58 to -30, AP-1/AP-4) (dsDNA)
DNA 1: GGGCCGGATCAGCTGACTCGCCTGGCTCT
DNA 2: AGAGCCAGGCGAGTCAGCTGATCCGGCCC
On to B3, for which, in data set [3], the binding result is “binds”.

B4: human amyloid precursor-like protein APLP2 (other)
chain: GYIEALAAAAGTGFAVAEPQIAMFCGKLNMHVNIQTGKWEPDPTGTKSCFRTKEEVLQYCQEMYPELQITNVMEANQRVSIDNWCRRDKKQCKSRFVTPFKCLVGEFVSDVLLVPEKCRFFHKERMEVCENHQHWHTVVKEACLTQGMTLYSYGMLLPCGVDQFHGTEYVCCPQTKDYWSVSKEEEEEEDEEEEEEEDEEEDYDVYKSEFPTEADLEDFTEAAVDEDDEDEEEGEEVVEDRDYYYDTFKGDDYNEENPTEPGSDGTMSDKEITHDVKVPPTPLPTNDVDVYFETSADDNEHARFQKAEKEQLIERHRNRMDRVKKEWEEAELQAKNLPKAERQTLIQHFQAMVKALEKAEAASEKQQLVETHLARVEAMLNDRRMALENYLAALQRSDPPRPHRILQPLRRYVRAENKDRLHTIRHYQHVLAVDPEKAAQMKSQVMTHLHVIEERRNQSLSLLYKDPYVARIQENDELLQAERADMDQFTASISETPVDVRVSSEESEEIPPFHPFHPFPALPENEDTQPELYHPMKKGSGVGEQDGGLIGAEEKVINSKNKVDENMVIDETLDKEMIFNAERVGGLEERESVGPLREDFSLSSSASIGLLVIAVAIATVIVISLVMLRKRQVCTISHGIVEVDPMLTPEERHLNKMQNHGYENPTYKTLEQMQI
As for B4, in data set [2], the “relative luciferase units (USF activation of transcription from the APP promoter)” value is ~2 fold.
